Measured values: publication PMC7755396 (eLife, 2020)

Assays:
Conditions in all cases: both partners purified
[1] = molecular target: Puumala virus (PUUV) Gc ectodomain, residues 659–1105 (Puumala orthohantavirus, GPC of GenBank …, UniProt Q9WJ31); experiment: crystal structure
[2] = molecular target: T1, Puumala virus Gc as displayed on virus-like particles (Puumala orthohantavirus); experiment: cryo-EM structure
T1 chain: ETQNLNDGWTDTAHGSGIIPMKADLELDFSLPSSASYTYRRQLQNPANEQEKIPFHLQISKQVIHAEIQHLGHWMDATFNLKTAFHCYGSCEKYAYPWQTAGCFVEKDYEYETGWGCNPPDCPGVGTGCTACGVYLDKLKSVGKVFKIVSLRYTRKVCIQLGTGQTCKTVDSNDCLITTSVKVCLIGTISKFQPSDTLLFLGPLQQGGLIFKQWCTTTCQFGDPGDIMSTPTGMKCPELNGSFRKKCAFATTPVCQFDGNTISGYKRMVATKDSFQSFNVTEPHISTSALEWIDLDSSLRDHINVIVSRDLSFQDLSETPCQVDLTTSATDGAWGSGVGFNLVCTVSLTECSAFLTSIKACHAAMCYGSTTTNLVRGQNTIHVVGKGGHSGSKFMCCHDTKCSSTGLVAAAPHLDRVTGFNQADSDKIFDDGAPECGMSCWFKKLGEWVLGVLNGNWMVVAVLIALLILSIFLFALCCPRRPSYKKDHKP

[3] = molecular target: T2, Puumala virus (Gn−Gc)4 glycoprotein spike on virus-like particles (Puumala orthohantavirus, strain …, UniProt P27312); experiment: cryo-EM structure
T2 construct: copies: 4 + 4

Measured: binding result

B1: Fab P-4G2 (antigen-binding fragment of mAb P-4G2) (Fab, V domains shown)
VH: QVQMKESGGGLVQPGKSLKLSCAASGFTFSDFWMSWVRQPSGKGLEWVARINTNGDTTHYTDDMKGRFTISRDNAKTTLYLEMSPLKSEDTAMYYCTRDRLGPFDYWGQGTTVTVSS
VL: DIVMTQSPAFPPVSLGDTVTITCQASQSVYKNLAWYQQKPGKSPRLLIFGMSSLADGVPSRFSASGSDKQYSLKIRGLQPEDAAIYYCQQHYIAPYTFGAGTRLEIK
notes: also called Fab 4G2
binds: all assays above
